Publication PMC548379

B1: cold NF-kB nonspecific competition probe (dsDNA)
DNA 1: AGTTGAGATTACTTTCACCAGGCTTTTT
DNA 2: GCCTGTGAAAGTAATCTCAACTTTTTT
B2: cold NF-kB specific competition probe (dsDNA)
DNA 1: AGTTGAGGGGACTTTCCCAGGCTTTTT
DNA 2: GCCTGGGAAAGTCCCCTCAACTTTTTT

Target: NF-kB p50 (rhNF-kB p50) (Homo sapiens, UniProt P19838 1-433)
Assay: competition

Chain of NF-kB p50 (rhNF-kB p50) (P19838 1-433): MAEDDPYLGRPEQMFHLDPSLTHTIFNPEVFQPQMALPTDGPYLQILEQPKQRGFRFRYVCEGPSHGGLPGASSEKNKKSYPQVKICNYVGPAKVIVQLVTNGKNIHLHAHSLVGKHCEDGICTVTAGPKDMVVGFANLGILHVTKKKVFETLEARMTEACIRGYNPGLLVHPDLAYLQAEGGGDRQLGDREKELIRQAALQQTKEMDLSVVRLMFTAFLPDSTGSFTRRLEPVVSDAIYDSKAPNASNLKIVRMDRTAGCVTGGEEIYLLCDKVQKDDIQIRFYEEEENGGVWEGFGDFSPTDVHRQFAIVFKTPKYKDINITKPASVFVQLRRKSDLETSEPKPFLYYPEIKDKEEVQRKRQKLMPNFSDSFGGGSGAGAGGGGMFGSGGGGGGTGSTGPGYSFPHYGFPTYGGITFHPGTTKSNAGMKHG

Binder	binding result
B1	no binding
B2	binds
